The values below come from paper PMC4956256.

pKd: −log10 of the molar value.

Test [1] deals with soluble CD4 receptor ligand, CD4-Fc (sCD4) (UniProt P01730). As to the kind of experiment: SPR; BIAcore 3000; about 200 RU of sCD4 immobilised directly on a CM5 chip by amine coupling; varying concentrations of gp120 injected at 100 ul/min; 25°C; PBS + 0.1% BSA; 1:1 Langmuir fit. (SPR reads the build-up and loss of mass on a sensor chip optically.)
Test [2] deals with TV1.C gp120 monomer (HIV-1 subtype C, strain TV1.C). As to the kind of experiment: SEC + other: SDS-PAGE; purified TV1.C gp120; SDS-PAGE under reduced and non-reduced conditions; SEC-HPLC under non-reduced and reduced (otherwise native) conditions. For orientation: Size exclusion chromatography separates by hydrodynamic size, large species first.

Take 1086.C gp120 monomer (natural protein): in test [1], the pKd was 7.58. With TV1.C gp120 monomer (natural protein), in test [2], the stoichiometry N amounted to 2. In addition, in test [1], the negative logarithm of the Kd (pKd) is 6.83.

The term pKd denotes the negative decadic logarithm of the Kd, by convention in mol/L. As a reminder, the stoichiometry N is the number of molecules, sites or subunits per partner or assembly.
